From patent US20210388110A1 (published 2021) come the findings set out here.

The experiment concerns the target T1, soluble human CD3ε chain (human, UniProt P07766 23-126, limits assumed).
T1 construct: the text says soluble human CD3ε chain; also called human CD3 epsilon chain
Briefly: SPR (Biacore).

T1 sequence (P07766 23-126 limits assumed): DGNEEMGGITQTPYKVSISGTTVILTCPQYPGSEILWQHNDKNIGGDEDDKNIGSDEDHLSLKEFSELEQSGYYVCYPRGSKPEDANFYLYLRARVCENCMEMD

B1: TR01H067-E22Hh/none-Hi-Kn010G3/TR01L019-k0 (antibody, human IgG1, kappa, L234A L235A, N297A)
heavy: QVQLVESGGGLVQPGRSLRLSCAASGFTFSNAWMHWVRQAPGKGLEWVAQIKDKSQNYATYYAESVKGRFTISRDDSKNSLYLQMNSLKTEDTAVYYCRYVHYAASYGVDAWGQGTTVTVSSASTKGPSVFPLAPSSKSTSGGTAALGCLVKDYFPEPVTVSWNSGALTSGVHTFPAVLQSSGLYSLSSVVTVPSSSLGTQTYICNVNHKPSNTKVDKKVEPKSCDKTHTCPPCPAPEAAGGPSVFLFPPKPKDTLMISRTPEVTCVVVDVSHEDPEVKFNWYVDGVEVHNAKTKPREEQYASTYRVVSVLTVLHQDWLNGKEYKCKVSNKALPAPIEKTISKAKGQPREPQVYTLPPSRCELTKNQVSLSCAVKGFYPSDIAVEWESNGQPENNYKTTPPVLDSDGSFFLVSKLTVDKSRWQQGNVFSCSVMHEALHNHYTQKSLSLSPDYKDDDDK
chain: EPKSSDKTHTCPPCPAPELLGGPSVFLFPPKPKDTLMISRTPEVTCVVVDVSHEDPEVKFNWYVDGVEVHNAKTKPREEQYNSTYRVVSVLTVLHQDWLNGKEYKCKVSNKALPAPIEKTISKAKGQPREPQVCTLPPSRDELTKNQVSLWCLVKGFYPSDIAVEWESNGQPENNYKTTPPVLDSDGSFFLYSKLTVDKSRWQQGNVFSCSVMHEALHNRYTQKSLSLSP
light: DIVMTQSPLSLPVTPGEPASISCQASESPVHSNRNTYLHWYLQKPGQSPQLLIYKVSNRFSGVPDRFSGSGSGTDFTLKISRVEAEDVGVYYCYQGTQVPYTFGQGTKLEIKRTVAAPSVFIFPPSDEQLKSGTASVVCLLNNFYPREAKVQWKVDNALQSGNSQESVTEQDSKDSTYSLSSTLTLSKADYEKHKVYACEVTHQGLSSPVTKSFNRGEC
notes: single-arm
In the case of B1, the equilibrium dissociation constant (Kd) came to 12.1 nM.

B2: TR01H069-E22Hh/none-Hi-Kn010G3/L0000-k0 (antibody, human IgG1, kappa, L234A L235A, N297A)
heavy: QVQLVESGGGVVQPGGSLRLSCAASGFTFSNAWMHWVRQAPGKGLEWVAQIKDKSQNYATYYAESVKGRFTISRDDSKNSLYLQMNSLKTEDTAVYYCRYVHYAASYGVDIWGQGTTVTVSSASTKGPSVFPLAPSSKSTSGGTAALGCLVKDYFPEPVTVSWNSGALTSGVHTFPAVLQSSGLYSLSSVVTVPSSSLGTQTYICNVNHKPSNTKVDKKVEPKSCDKTHTCPPCPAPEAAGGPSVFLFPPKPKDTLMISRTPEVTCVVVDVSHEDPEVKFNWYVDGVEVHNAKTKPREEQYASTYRVVSVLTVLHQDWLNGKEYKCKVSNKALPAPIEKTISKAKGQPREPQVYTLPPSRCELTKNQVSLSCAVKGFYPSDIAVEWESNGQPENNYKTTPPVLDSDGSFFLVSKLTVDKSRWQQGNVFSCSVMHEALHNHYTQKSLSLSPDYKDDDDK
chain: EPKSSDKTHTCPPCPAPELLGGPSVFLFPPKPKDTLMISRTPEVTCVVVDVSHEDPEVKFNWYVDGVEVHNAKTKPREEQYNSTYRVVSVLTVLHQDWLNGKEYKCKVSNKALPAPIEKTISKAKGQPREPQVCTLPPSRDELTKNQVSLWCLVKGFYPSDIAVEWESNGQPENNYKTTPPVLDSDGSFFLYSKLTVDKSRWQQGNVFSCSVMHEALHNRYTQKSLSLSP
light: DIVMTQSPLSLPVTPGEPASISCRSSQSLVHSNRNTYLHWYQQKPGQAPRLLIYKVSNRFSGVPDRFSGSGSGTDFTLKISRVEAEDVGVYYCGQGTQVPYTFGQGTKLEIKRTVAAPSVFIFPPSDEQLKSGTASVVCLLNNFYPREAKVQWKVDNALQSGNSQESVTEQDSKDSTYSLSSTLTLSKADYEKHKVYACEVTHQGLSSPVTKSFNRGEC
notes: single-arm
B2 displayed a Kd of 71.1 nM.

B3: TR01H071-E22Hh/none-Hi-Kn010G3/L0200-k0 (antibody, human IgG1, kappa, L234A L235A, N297A)
heavy: QVQLVESGGGLVQPGRSLRLSCAASGFTFSNAWMHWVRQAPGKGLEWVAQIKDKSNNYATYYAESVKGRFTISRADSKNSIYLQMNSLKTEDTAVYYCRYVHYAASYGVDIWGQGTTVTVSSASTKGPSVFPLAPSSKSTSGGTAALGCLVKDYFPEPVTVSWNSGALTSGVHTFPAVLQSSGLYSLSSVVTVPSSSLGTQTYICNVNHKPSNTKVDKKVEPKSCDKTHTCPPCPAPEAAGGPSVFLFPPKPKDTLMISRTPEVTCVVVDVSHEDPEVKFNWYVDGVEVHNAKTKPREEQYASTYRVVSVLTVLHQDWLNGKEYKCKVSNKALPAPIEKTISKAKGQPREPQVYTLPPSRCELTKNQVSLSCAVKGFYPSDIAVEWESNGQPENNYKTTPPVLDSDGSFFLVSKLTVDKSRWQQGNVFSCSVMHEALHNHYTQKSLSLSPDYKDDDDK
chain: EPKSSDKTHTCPPCPAPELLGGPSVFLFPPKPKDTLMISRTPEVTCVVVDVSHEDPEVKFNWYVDGVEVHNAKTKPREEQYNSTYRVVSVLTVLHQDWLNGKEYKCKVSNKALPAPIEKTISKAKGQPREPQVCTLPPSRDELTKNQVSLWCLVKGFYPSDIAVEWESNGQPENNYKTTPPVLDSDGSFFLYSKLTVDKSRWQQGNVFSCSVMHEALHNRYTQKSLSLSP
light: DIVMTQSPLSLPVTPGEPASISCRPSQSPVHSNRNTYLHWYQQKPGQAPRLLIYKVSNRFSGVPDRFSGSGSGTDFTLKISRVEAEDVGVYYCGQGTQVPYTFGQGTKLEIKRTVAAPSVFIFPPSDEQLKSGTASVVCLLNNFYPREAKVQWKVDNALQSGNSQESVTEQDSKDSTYSLSSTLTLSKADYEKHKVYACEVTHQGLSSPVTKSFNRGEC
notes: single-arm
In turn, B3 gave a Kd of 6.13 nM.

B4: TR01H071-E22Hh/none-Hi-Kn010G3/L0000-k0 (antibody, human IgG1, kappa, L234A L235A, N297A)
heavy: QVQLVESGGGLVQPGRSLRLSCAASGFTFSNAWMHWVRQAPGKGLEWVAQIKDKSNNYATYYAESVKGRFTISRADSKNSIYLQMNSLKTEDTAVYYCRYVHYAASYGVDIWGQGTTVTVSSASTKGPSVFPLAPSSKSTSGGTAALGCLVKDYFPEPVTVSWNSGALTSGVHTFPAVLQSSGLYSLSSVVTVPSSSLGTQTYICNVNHKPSNTKVDKKVEPKSCDKTHTCPPCPAPEAAGGPSVFLFPPKPKDTLMISRTPEVTCVVVDVSHEDPEVKFNWYVDGVEVHNAKTKPREEQYASTYRVVSVLTVLHQDWLNGKEYKCKVSNKALPAPIEKTISKAKGQPREPQVYTLPPSRCELTKNQVSLSCAVKGFYPSDIAVEWESNGQPENNYKTTPPVLDSDGSFFLVSKLTVDKSRWQQGNVFSCSVMHEALHNHYTQKSLSLSPDYKDDDDK
chain: EPKSSDKTHTCPPCPAPELLGGPSVFLFPPKPKDTLMISRTPEVTCVVVDVSHEDPEVKFNWYVDGVEVHNAKTKPREEQYNSTYRVVSVLTVLHQDWLNGKEYKCKVSNKALPAPIEKTISKAKGQPREPQVCTLPPSRDELTKNQVSLWCLVKGFYPSDIAVEWESNGQPENNYKTTPPVLDSDGSFFLYSKLTVDKSRWQQGNVFSCSVMHEALHNRYTQKSLSLSP
light: DIVMTQSPLSLPVTPGEPASISCRSSQSLVHSNRNTYLHWYQQKPGQAPRLLIYKVSNRFSGVPDRFSGSGSGTDFTLKISRVEAEDVGVYYCGQGTQVPYTFGQGTKLEIKRTVAAPSVFIFPPSDEQLKSGTASVVCLLNNFYPREAKVQWKVDNALQSGNSQESVTEQDSKDSTYSLSSTLTLSKADYEKHKVYACEVTHQGLSSPVTKSFNRGEC
notes: single-arm
In turn, B4 yielded an equilibrium dissociation constant (Kd) of 8.85 nM. The Kd values of the last two molecules are within 1.5-fold of each other.

B5: TR01H071-E22Hh/none-Hi-Kn010G3/L0222-k0 (antibody, human IgG1, kappa, L234A L235A, N297A)
heavy: QVQLVESGGGLVQPGRSLRLSCAASGFTFSNAWMHWVRQAPGKGLEWVAQIKDKSNNYATYYAESVKGRFTISRADSKNSIYLQMNSLKTEDTAVYYCRYVHYAASYGVDIWGQGTTVTVSSASTKGPSVFPLAPSSKSTSGGTAALGCLVKDYFPEPVTVSWNSGALTSGVHTFPAVLQSSGLYSLSSVVTVPSSSLGTQTYICNVNHKPSNTKVDKKVEPKSCDKTHTCPPCPAPEAAGGPSVFLFPPKPKDTLMISRTPEVTCVVVDVSHEDPEVKFNWYVDGVEVHNAKTKPREEQYASTYRVVSVLTVLHQDWLNGKEYKCKVSNKALPAPIEKTISKAKGQPREPQVYTLPPSRCELTKNQVSLSCAVKGFYPSDIAVEWESNGQPENNYKTTPPVLDSDGSFFLVSKLTVDKSRWQQGNVFSCSVMHEALHNHYTQKSLSLSPDYKDDDDK
chain: EPKSSDKTHTCPPCPAPELLGGPSVFLFPPKPKDTLMISRTPEVTCVVVDVSHEDPEVKFNWYVDGVEVHNAKTKPREEQYNSTYRVVSVLTVLHQDWLNGKEYKCKVSNKALPAPIEKTISKAKGQPREPQVCTLPPSRDELTKNQVSLWCLVKGFYPSDIAVEWESNGQPENNYKTTPPVLDSDGSFFLYSKLTVDKSRWQQGNVFSCSVMHEALHNRYTQKSLSLSP
light: DIVMTQSPLSLPVTPGEPASISCRSSQSPVHSNRNTYIQWYQQKPGQAPRLLIYKVSNRFSGVPDRFSGSGSGTDFTLKISRVEAEDVGVYYCYQGTQVPYTFGQGTKLEIKRTVAAPSVFIFPPSDEQLKSGTASVVCLLNNFYPREAKVQWKVDNALQSGNSQESVTEQDSKDSTYSLSSTLTLSKADYEKHKVYACEVTHQGLSSPVTKSFNRGEC
notes: single-arm
In turn, B5 had an equilibrium dissociation constant (Kd) of 10.4 nM.

B6: TR01H071-E22Hh/none-Hi-Kn010G3/L0215-k0 (antibody, human IgG1, kappa, L234A L235A, N297A)
heavy: QVQLVESGGGLVQPGRSLRLSCAASGFTFSNAWMHWVRQAPGKGLEWVAQIKDKSNNYATYYAESVKGRFTISRADSKNSIYLQMNSLKTEDTAVYYCRYVHYAASYGVDIWGQGTTVTVSSASTKGPSVFPLAPSSKSTSGGTAALGCLVKDYFPEPVTVSWNSGALTSGVHTFPAVLQSSGLYSLSSVVTVPSSSLGTQTYICNVNHKPSNTKVDKKVEPKSCDKTHTCPPCPAPEAAGGPSVFLFPPKPKDTLMISRTPEVTCVVVDVSHEDPEVKFNWYVDGVEVHNAKTKPREEQYASTYRVVSVLTVLHQDWLNGKEYKCKVSNKALPAPIEKTISKAKGQPREPQVYTLPPSRCELTKNQVSLSCAVKGFYPSDIAVEWESNGQPENNYKTTPPVLDSDGSFFLVSKLTVDKSRWQQGNVFSCSVMHEALHNHYTQKSLSLSPDYKDDDDK
chain: EPKSSDKTHTCPPCPAPELLGGPSVFLFPPKPKDTLMISRTPEVTCVVVDVSHEDPEVKFNWYVDGVEVHNAKTKPREEQYNSTYRVVSVLTVLHQDWLNGKEYKCKVSNKALPAPIEKTISKAKGQPREPQVCTLPPSRDELTKNQVSLWCLVKGFYPSDIAVEWESNGQPENNYKTTPPVLDSDGSFFLYSKLTVDKSRWQQGNVFSCSVMHEALHNRYTQKSLSLSP
light: DIVMTQSPLSLPVTPGEPASISCRSSQPPVHSNRNTYIHWYQQKPGQAPRLLIYKVSNRFSGVPDRFSGSGSGTDFTLKISRVEAEDVGVYYCGQGTQVPYTFGQGTKLEIKRTVAAPSVFIFPPSDEQLKSGTASVVCLLNNFYPREAKVQWKVDNALQSGNSQESVTEQDSKDSTYSLSSTLTLSKADYEKHKVYACEVTHQGLSSPVTKSFNRGEC
notes: single-arm
B6: binding was put at a Kd of 9.51 nM.

As a reminder, the Kd is the free concentration of one partner at which half of the binding sites on the other are occupied at equilibrium, for simple one-to-one binding. Low readings indicate higher affinity, high ones lower affinity.
